Results on 1 substance are retold here after article PMC3093450.

The target of this assay is GST-Sec23p (yeast) (UniProt P15303). The assay is described as follows: pull-down.
GST-Sec23p (yeast), sequence (P15303 2-768): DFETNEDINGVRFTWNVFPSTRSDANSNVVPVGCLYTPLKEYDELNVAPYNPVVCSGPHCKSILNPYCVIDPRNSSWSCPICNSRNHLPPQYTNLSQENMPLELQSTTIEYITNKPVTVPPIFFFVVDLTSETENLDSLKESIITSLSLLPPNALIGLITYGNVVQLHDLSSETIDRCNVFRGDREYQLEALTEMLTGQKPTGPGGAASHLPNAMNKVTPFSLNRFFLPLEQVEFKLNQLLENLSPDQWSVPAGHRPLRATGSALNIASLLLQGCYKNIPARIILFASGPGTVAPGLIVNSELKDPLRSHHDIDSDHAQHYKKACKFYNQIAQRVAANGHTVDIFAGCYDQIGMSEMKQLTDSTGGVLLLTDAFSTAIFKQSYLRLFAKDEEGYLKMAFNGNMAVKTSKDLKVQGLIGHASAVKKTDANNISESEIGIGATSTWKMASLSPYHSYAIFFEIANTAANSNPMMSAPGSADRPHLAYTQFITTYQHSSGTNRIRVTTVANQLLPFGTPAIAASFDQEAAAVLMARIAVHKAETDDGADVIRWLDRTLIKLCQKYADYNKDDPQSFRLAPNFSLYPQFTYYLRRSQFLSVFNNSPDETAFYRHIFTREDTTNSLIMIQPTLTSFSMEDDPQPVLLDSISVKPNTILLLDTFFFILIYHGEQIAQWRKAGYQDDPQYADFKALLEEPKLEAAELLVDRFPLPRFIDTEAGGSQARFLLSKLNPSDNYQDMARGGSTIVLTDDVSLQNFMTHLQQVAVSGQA

Regarding “TRAPPI complex (from UniProt P36149 1-193)”, the dissociation constant Kd amounted to 630 nM.
